Tests used:
Assay in all cases: holdup assay
Parameters in all cases: key: below the threshold = too weak to quantify, mostly under pKd 3.1 to 4
Details in all cases: plain residues with an end cap or a label only (N-terminal biotin on a linker: ado-ado)
LNX1_2, Q8TBB1 = target: LNX1_2, Q8TBB1
APBA1_1, Q02410 = target: T1, APBA1_1, Q02410
T1 sequence (Q02410 651-752, limits assumed, looked up): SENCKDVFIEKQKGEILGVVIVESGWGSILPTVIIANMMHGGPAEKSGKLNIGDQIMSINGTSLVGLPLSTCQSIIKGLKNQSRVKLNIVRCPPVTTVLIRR

FRMPD2_3, Q68DX3 = target: FRMPD2_3, Q68DX3
TJP1_3, Q07157 = target: TJP1_3, Q07157
APBA1_2, Q02410 = target: T2, APBA1_2, Q02410
T2 sequence (Q02410 742-832, limits assumed, looked up): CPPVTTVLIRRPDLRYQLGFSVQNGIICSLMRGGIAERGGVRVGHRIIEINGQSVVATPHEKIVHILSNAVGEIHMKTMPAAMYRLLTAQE

DLG3_3, Q92796 = target: T3, DLG3_3, Q92796
T3 sequence (Q92796 374-475, limits assumed, looked up): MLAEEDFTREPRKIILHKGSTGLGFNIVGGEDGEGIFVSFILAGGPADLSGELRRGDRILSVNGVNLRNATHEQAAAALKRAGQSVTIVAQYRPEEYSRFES

NHERF3_4, Q5T2W1 = target: T4, NHERF3_4, Q5T2W1
T4 sequence (Q5T2W1 373-468, limits assumed, looked up): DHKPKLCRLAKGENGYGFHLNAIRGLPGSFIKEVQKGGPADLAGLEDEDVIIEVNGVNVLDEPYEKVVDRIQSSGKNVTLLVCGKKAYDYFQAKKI

SCRIB_2, Q14160 = target: SCRIB_2, Q14160
GRIP1_4, Q9Y3R0 = target: T5, GRIP1_4, Q9Y3R0
T5 sequence (Q9Y3R0 467-571, limits assumed, looked up): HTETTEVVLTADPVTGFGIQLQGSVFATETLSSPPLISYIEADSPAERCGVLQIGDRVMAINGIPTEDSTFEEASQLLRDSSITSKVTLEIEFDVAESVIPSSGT

RADIL, Q96JH8 = target: T6, RADIL, Q96JH8
T6 sequence (Q96JH8 971-1071, limits assumed, looked up): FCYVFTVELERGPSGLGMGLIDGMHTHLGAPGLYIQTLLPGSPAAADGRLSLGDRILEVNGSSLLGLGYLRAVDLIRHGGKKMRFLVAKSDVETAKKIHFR

GRIP1_7, Q9Y3R0 = target: T7, GRIP1_7, Q9Y3R0
T7 sequence (Q9Y3R0 999-1096, limits assumed, looked up): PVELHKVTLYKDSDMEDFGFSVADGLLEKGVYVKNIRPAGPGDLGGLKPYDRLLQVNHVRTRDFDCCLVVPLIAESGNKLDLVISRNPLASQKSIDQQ

Inadl_5, Q8NI35 = target: Inadl_5, Q8NI35
TJP1_2, Q07157 = target: TJP1_2, Q07157
Inadl_6, Q8NI35 = target: Inadl_6, Q8NI35
PDZD2_2, O15018 = target: T8, PDZD2_2, O15018
T8 sequence (O15018 329-429, limits assumed, looked up): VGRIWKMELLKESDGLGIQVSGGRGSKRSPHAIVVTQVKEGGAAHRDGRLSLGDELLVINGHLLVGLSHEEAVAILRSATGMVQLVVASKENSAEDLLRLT

DLG1_2, Q12959 = target: DLG1_2, Q12959
DFNB31_2, Q9P202 = target: T9, DFNB31_2, Q9P202
T9 sequence (Q9P202 274-371, limits assumed, looked up): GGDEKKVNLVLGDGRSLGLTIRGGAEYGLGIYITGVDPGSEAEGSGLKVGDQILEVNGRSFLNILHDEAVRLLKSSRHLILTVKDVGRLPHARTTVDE

AHNAK1, Q09666 = target: AHNAK1, Q09666
Inadl_2, Q8NI35 = target: Inadl_2, Q8NI35
DLG1_3, Q12959 = target: DLG1_3, Q12959
LNX1_3, Q8TBB1 = target: LNX1_3, Q8TBB1
MAGI3_2, Q5TCQ9 = target: MAGI3_2, Q5TCQ9
Inadl_3, Q8NI35 = target: Inadl_3, Q8NI35
SNTG2, Q9NY99 = target: T10, SNTG2, Q9NY99
T10 sequence (Q9NY99 68-166, limits assumed, looked up): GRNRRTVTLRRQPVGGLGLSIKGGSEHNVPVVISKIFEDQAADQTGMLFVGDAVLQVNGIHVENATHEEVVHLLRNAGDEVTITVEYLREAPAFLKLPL

HTRA2, O43464 = target: HTRA2, O43464
MPP7, Q5T2T1 = target: T11, MPP7, Q5T2T1
T11 sequence (Q5T2T1 134-230, limits assumed, looked up): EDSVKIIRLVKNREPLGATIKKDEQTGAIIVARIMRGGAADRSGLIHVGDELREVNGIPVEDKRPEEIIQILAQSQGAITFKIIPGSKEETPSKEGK

SNX27, Q96L92 = target: SNX27, Q96L92

Chain of TJP1_3, Q07157 (Q07157 416-512): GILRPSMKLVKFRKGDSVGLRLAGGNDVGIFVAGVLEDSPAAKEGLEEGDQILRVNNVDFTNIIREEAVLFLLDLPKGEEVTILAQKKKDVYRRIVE
Chain of MAGI3_2, Q5TCQ9 (Q5TCQ9 398-503): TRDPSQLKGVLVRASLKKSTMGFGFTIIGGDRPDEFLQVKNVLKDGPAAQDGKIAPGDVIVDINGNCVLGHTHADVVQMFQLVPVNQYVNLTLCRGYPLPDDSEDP
Chain of LNX1_2, Q8TBB1 (Q8TBB1 371-470): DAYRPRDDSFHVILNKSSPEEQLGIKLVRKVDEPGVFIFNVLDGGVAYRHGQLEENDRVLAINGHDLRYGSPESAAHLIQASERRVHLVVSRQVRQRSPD
Chain of SCRIB_2, Q14160 (Q14160 857-960): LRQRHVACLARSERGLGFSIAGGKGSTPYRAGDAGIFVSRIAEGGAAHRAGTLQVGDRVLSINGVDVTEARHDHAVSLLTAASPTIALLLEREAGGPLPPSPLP
Chain of HTRA2, O43464 (O43464 355-458): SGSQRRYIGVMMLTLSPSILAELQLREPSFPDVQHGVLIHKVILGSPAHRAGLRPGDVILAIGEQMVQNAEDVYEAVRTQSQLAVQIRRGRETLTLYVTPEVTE
Chain of AHNAK1, Q09666 (Q09666 4-100): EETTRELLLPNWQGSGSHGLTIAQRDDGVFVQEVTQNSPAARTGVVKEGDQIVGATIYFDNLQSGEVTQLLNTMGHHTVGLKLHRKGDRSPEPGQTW
Chain of LNX1_3, Q8TBB1 (Q8TBB1 500-596): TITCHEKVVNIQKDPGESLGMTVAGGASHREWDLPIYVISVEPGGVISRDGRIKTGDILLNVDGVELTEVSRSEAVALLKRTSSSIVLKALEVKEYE
Chain of Inadl_2, Q8NI35 (Q8NI35 238-335): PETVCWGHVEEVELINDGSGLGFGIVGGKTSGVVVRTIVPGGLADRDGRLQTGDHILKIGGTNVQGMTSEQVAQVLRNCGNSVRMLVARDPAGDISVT
Chain of Inadl_6, Q8NI35 (Q8NI35 1058-1167): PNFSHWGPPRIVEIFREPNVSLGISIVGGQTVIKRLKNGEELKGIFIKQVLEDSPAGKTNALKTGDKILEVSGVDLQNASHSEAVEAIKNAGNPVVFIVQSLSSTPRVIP
Chain of TJP1_2, Q07157 (Q07157 181-274): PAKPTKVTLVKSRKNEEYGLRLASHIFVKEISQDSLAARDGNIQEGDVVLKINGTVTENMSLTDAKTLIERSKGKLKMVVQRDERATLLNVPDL
Chain of FRMPD2_3, Q68DX3 (Q68DX3 1073-1166): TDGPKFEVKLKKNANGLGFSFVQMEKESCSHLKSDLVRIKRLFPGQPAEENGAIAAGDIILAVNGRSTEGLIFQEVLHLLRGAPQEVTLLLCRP
Chain of Inadl_3, Q8NI35 (Q8NI35 359-469): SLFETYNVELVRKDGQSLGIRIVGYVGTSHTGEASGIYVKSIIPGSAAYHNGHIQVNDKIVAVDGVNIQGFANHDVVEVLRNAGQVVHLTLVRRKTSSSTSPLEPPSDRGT
Chain of DLG1_3, Q12959 (Q12959 457-571): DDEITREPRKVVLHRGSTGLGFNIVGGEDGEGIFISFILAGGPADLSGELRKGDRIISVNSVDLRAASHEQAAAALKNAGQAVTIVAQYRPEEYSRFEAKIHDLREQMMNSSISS
Chain of Inadl_5, Q8NI35 (Q8NI35 673-780): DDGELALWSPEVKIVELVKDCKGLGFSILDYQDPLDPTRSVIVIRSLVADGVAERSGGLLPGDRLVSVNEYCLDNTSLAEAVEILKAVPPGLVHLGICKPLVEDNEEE
Chain of DLG1_2, Q12959 (Q12959 314-412): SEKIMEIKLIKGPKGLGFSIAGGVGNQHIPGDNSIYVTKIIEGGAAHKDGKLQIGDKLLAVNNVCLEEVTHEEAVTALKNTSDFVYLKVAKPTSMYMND

RQSILFSTEV [BCR, P11274]
pKd (LNX1_2, Q8TBB1): 3.74
pKd (APBA1_1, Q02410): below the threshold
pKd (FRMPD2_3, Q68DX3): below the threshold
pKd (TJP1_3, Q07157): below the threshold
pKd (APBA1_2, Q02410): 4.07
pKd (DLG3_3, Q92796): 3.86
pKd (NHERF3_4, Q5T2W1): 4.37
pKd (SCRIB_2, Q14160): 4.54
pKd (GRIP1_4, Q9Y3R0): below the threshold
pKd (RADIL, Q96JH8): 4.48
pKd (GRIP1_7, Q9Y3R0): below the threshold
pKd (Inadl_5, Q8NI35): 3.49
pKd (TJP1_2, Q07157): 3.62
pKd (Inadl_6, Q8NI35): 3.93
pKd (PDZD2_2, O15018): 4.76
pKd (DLG1_2, Q12959): 4.85
pKd (DFNB31_2, Q9P202): below the threshold
pKd (AHNAK1, Q09666): below the threshold
pKd (Inadl_2, Q8NI35): below the threshold
pKd (DLG1_3, Q12959): 4.06
pKd (LNX1_3, Q8TBB1): 3.64
pKd (MAGI3_2, Q5TCQ9): 4.13
pKd (Inadl_3, Q8NI35): 4.66
pKd (SNTG2, Q9NY99): 4.1
pKd (HTRA2, O43464): below the threshold
pKd (MPP7, Q5T2T1): below the threshold
pKd (SNX27, Q96L92): 4.89

SMLNRRTTPV [CACNG4, Q9UBN1]
pKd (LNX1_2, Q8TBB1): 3.75
pKd (APBA1_1, Q02410): below the threshold
pKd (FRMPD2_3, Q68DX3): below the threshold
pKd (TJP1_3, Q07157): below the threshold
pKd (APBA1_2, Q02410): 3.73
pKd (DLG3_3, Q92796): 4.77
pKd (NHERF3_4, Q5T2W1): 3.5
pKd (SCRIB_2, Q14160): 3.53
pKd (GRIP1_4, Q9Y3R0): below the threshold
pKd (RADIL, Q96JH8): below the threshold
pKd (GRIP1_7, Q9Y3R0): below the threshold
pKd (Inadl_5, Q8NI35): below the threshold
pKd (TJP1_2, Q07157): below the threshold
pKd (Inadl_6, Q8NI35): below the threshold
pKd (PDZD2_2, O15018): below the threshold
pKd (DLG1_2, Q12959): 4.98
pKd (DFNB31_2, Q9P202): below the threshold
pKd (AHNAK1, Q09666): below the threshold
pKd (Inadl_2, Q8NI35): below the threshold
pKd (DLG1_3, Q12959): 4.39
pKd (LNX1_3, Q8TBB1): below the threshold
pKd (MAGI3_2, Q5TCQ9): 5.19
pKd (Inadl_3, Q8NI35): below the threshold
pKd (SNTG2, Q9NY99): below the threshold
pKd (HTRA2, O43464): below the threshold
pKd (MPP7, Q5T2T1): below the threshold
pKd (SNX27, Q96L92): 4.93

EEDTAEKDEL [HSPA5, P11021]
pKd (LNX1_2, Q8TBB1): below the threshold
pKd (APBA1_1, Q02410): below the threshold
pKd (FRMPD2_3, Q68DX3): below the threshold
pKd (TJP1_3, Q07157): below the threshold
pKd (APBA1_2, Q02410): below the threshold
pKd (DLG3_3, Q92796): below the threshold
pKd (NHERF3_4, Q5T2W1): below the threshold
pKd (SCRIB_2, Q14160): below the threshold
pKd (GRIP1_4, Q9Y3R0): below the threshold
pKd (RADIL, Q96JH8): below the threshold
pKd (GRIP1_7, Q9Y3R0): below the threshold
pKd (Inadl_5, Q8NI35): below the threshold
pKd (TJP1_2, Q07157): below the threshold
pKd (Inadl_6, Q8NI35): below the threshold
pKd (PDZD2_2, O15018): 3.53
pKd (DLG1_2, Q12959): below the threshold
pKd (DFNB31_2, Q9P202): below the threshold
pKd (AHNAK1, Q09666): below the threshold
pKd (Inadl_2, Q8NI35): below the threshold
pKd (DLG1_3, Q12959): 3.77
pKd (LNX1_3, Q8TBB1): below the threshold
pKd (MAGI3_2, Q5TCQ9): 4.48
pKd (Inadl_3, Q8NI35): below the threshold
pKd (SNTG2, Q9NY99): below the threshold
pKd (HTRA2, O43464): below the threshold
pKd (MPP7, Q5T2T1): below the threshold
pKd (SNX27, Q96L92): 3.61

PELESKESVL [SLC1A4, P43007]
pKd (LNX1_2, Q8TBB1): below the threshold
pKd (APBA1_1, Q02410): below the threshold
pKd (FRMPD2_3, Q68DX3): below the threshold
pKd (TJP1_3, Q07157): below the threshold
pKd (APBA1_2, Q02410): below the threshold
pKd (DLG3_3, Q92796): below the threshold
pKd (NHERF3_4, Q5T2W1): below the threshold
pKd (SCRIB_2, Q14160): below the threshold
pKd (GRIP1_4, Q9Y3R0): below the threshold
pKd (RADIL, Q96JH8): below the threshold
pKd (GRIP1_7, Q9Y3R0): below the threshold
pKd (Inadl_5, Q8NI35): below the threshold
pKd (TJP1_2, Q07157): below the threshold
pKd (Inadl_6, Q8NI35): 3.57
pKd (PDZD2_2, O15018): 4.16
pKd (DLG1_2, Q12959): 4.04
pKd (DFNB31_2, Q9P202): 3.5
pKd (AHNAK1, Q09666): below the threshold
pKd (Inadl_2, Q8NI35): below the threshold
pKd (DLG1_3, Q12959): below the threshold
pKd (LNX1_3, Q8TBB1): below the threshold
pKd (MAGI3_2, Q5TCQ9): 3.84
pKd (Inadl_3, Q8NI35): below the threshold
pKd (SNTG2, Q9NY99): 4.09
pKd (HTRA2, O43464): below the threshold
pKd (MPP7, Q5T2T1): below the threshold
pKd (SNX27, Q96L92): 5.43

LSEFKAMDSF [CTNNA2, P26232]
pKd (LNX1_2, Q8TBB1): below the threshold
pKd (APBA1_1, Q02410): below the threshold
pKd (FRMPD2_3, Q68DX3): below the threshold
pKd (TJP1_3, Q07157): below the threshold
pKd (APBA1_2, Q02410): below the threshold
pKd (DLG3_3, Q92796): below the threshold
pKd (NHERF3_4, Q5T2W1): below the threshold
pKd (SCRIB_2, Q14160): below the threshold
pKd (GRIP1_4, Q9Y3R0): below the threshold
pKd (RADIL, Q96JH8): below the threshold
pKd (GRIP1_7, Q9Y3R0): below the threshold
pKd (Inadl_5, Q8NI35): below the threshold
pKd (TJP1_2, Q07157): below the threshold
pKd (Inadl_6, Q8NI35): below the threshold
pKd (PDZD2_2, O15018): below the threshold
pKd (DLG1_2, Q12959): below the threshold
pKd (DFNB31_2, Q9P202): below the threshold
pKd (AHNAK1, Q09666): below the threshold
pKd (Inadl_2, Q8NI35): below the threshold
pKd (DLG1_3, Q12959): below the threshold
pKd (LNX1_3, Q8TBB1): below the threshold
pKd (MAGI3_2, Q5TCQ9): below the threshold
pKd (Inadl_3, Q8NI35): below the threshold
pKd (SNTG2, Q9NY99): below the threshold
pKd (HTRA2, O43464): below the threshold
pKd (MPP7, Q5T2T1): below the threshold
pKd (SNX27, Q96L92): below the threshold

From article PMC9482650, “Quantitative fragmentomics allow affinity mapping of interactomes” (Nature Communications, 2022)
